Patent publication US20050282743A1, “Molecular interactions in cells” (Arbor Vita Corporation, priority 2001, published 2005)

Tests used:
[1] = molecular target: T1, GST-KIAA0300 PDZ domain 1 (UniProt O15018); assay: G' assay; also: key of the grades not given here
T1 sequence (looked up): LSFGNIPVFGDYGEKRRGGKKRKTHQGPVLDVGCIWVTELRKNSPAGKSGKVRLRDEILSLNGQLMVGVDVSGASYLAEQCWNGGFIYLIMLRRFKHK

[2] = molecular target: GST-DLG-1 PDZ domains 1 to 3 (Example 6) (Homo sapiens) (UniProt Q12959); assay: G assay competition vs 10 uM biotin-CD95 20-mer; competitor 100 uM
[3] = molecular target: GST-DLG-1 PDZ domains 1 to 3 (Example 6) (Homo sapiens) (UniProt Q12959); assay: G assay competition vs 20 uM biotin-CD46 20-mer; competitor 100 uM
[4] = molecular target: GST-DLG-1 PDZ domains 1 to 3 (Example 6) (Homo sapiens) (UniProt Q12959); assay: G assay competition vs 10 uM biotin-KV1.3 20-mer; competitor 100 uM
[5] = molecular target: GST-DLG-1 PDZ domains 1 to 3 (Example 6) (Homo sapiens) (UniProt Q12959); assay: G assay competition vs 20 uM biotin-CLASP-2 20-mer; competitor 100 uM
[6] = molecular target: GST-DLG-1 PDZ domains 1 to 3 (Example 6) (Homo sapiens) (UniProt Q12959); assay: G assay competition vs 10 uM biotin-CD95 20-mer; competitor 500 uM
[7] = molecular target: GST-PSD95 PDZ domains 1, 2, 3 (Homo sapiens) (UniProt P78352); assay: as above
GST-PSD95 PDZ domains 1, 2, 3 (Homo sapiens), sequence (P78352 62-395): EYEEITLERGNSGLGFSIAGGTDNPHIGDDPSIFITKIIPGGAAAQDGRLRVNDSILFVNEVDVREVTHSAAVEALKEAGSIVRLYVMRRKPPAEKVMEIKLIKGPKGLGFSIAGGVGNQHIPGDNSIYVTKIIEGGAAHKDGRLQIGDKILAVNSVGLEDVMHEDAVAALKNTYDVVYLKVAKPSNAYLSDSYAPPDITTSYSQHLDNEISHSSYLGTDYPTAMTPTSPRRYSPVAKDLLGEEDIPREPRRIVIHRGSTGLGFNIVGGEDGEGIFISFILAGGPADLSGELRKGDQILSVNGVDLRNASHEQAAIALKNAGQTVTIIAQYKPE

[8] = molecular target: GST-DLG-1 PDZ domains 1 to 3 (Example 6) (Homo sapiens) (UniProt Q12959); assay: G assay competition vs 20 uM biotin-CD46 20-mer; competitor 500 uM
[9] = molecular target: GST-PSD95 PDZ domains 1, 2, 3 (Homo sapiens) (UniProt P78352); assay: as above
[10] = molecular target: GST-DLG-1 PDZ domains 1 to 3 (Example 6) (Homo sapiens) (UniProt Q12959); assay: G assay competition vs 10 uM biotin-CD95 20-mer; competitor 1000 uM
[11] = molecular target: GST-PSD95 PDZ domains 1, 2, 3 (Homo sapiens) (UniProt P78352); assay: as above
[12] = molecular target: GST-PSD95 PDZ domains 1, 2, 3 (Homo sapiens) (UniProt P78352); assay: G assay competition vs 10 uM biotin-KV1.3 20-mer; competitor 500 uM
[13] = molecular target: GST-DLG-1 PDZ domains 1 to 3 (Example 6) (Homo sapiens) (UniProt Q12959); assay: G assay competition vs 20 uM biotin-CD46 20-mer; competitor 1000 uM
[14] = molecular target: GST-PSD95 PDZ domains 1, 2, 3 (Homo sapiens) (UniProt P78352); assay: as above
[15] = molecular target: GST-PSD95 PDZ domains 1, 2, 3 (Homo sapiens) (UniProt P78352); assay: G assay competition vs 10 uM biotin-KV1.3 20-mer; competitor 1000 uM
[16] = molecular target: GST-DLG-1 PDZ domains 1 to 3 (Example 6) (Homo sapiens) (UniProt Q12959); assay: G assay competition vs 20 uM biotin-CLASP-2 20-mer; competitor 500 uM
[17] = molecular target: GST-PSD95 PDZ domains 1, 2, 3 (Homo sapiens) (UniProt P78352); assay: as above
[18] = molecular target: GST-DLG-1 PDZ domains 1 to 3 (Example 6) (Homo sapiens) (UniProt Q12959); assay: G assay competition vs 20 uM biotin-CLASP-2 20-mer; competitor 1000 uM
[19] = molecular target: GST-PSD95 PDZ domains 1, 2, 3 (Homo sapiens) (UniProt P78352); assay: as above
[20] = molecular target: GST-BAI-1 Associated Protein PDZ domain 2 (Mus musculus (Mouse)) (UniProt Q6RHR9); assay: G' assay; also: key of the grades not given here
GST-BAI-1 Associated Protein PDZ domain 2 (Mus musculus (Mouse)), sequence (Q6RHR9 455-558): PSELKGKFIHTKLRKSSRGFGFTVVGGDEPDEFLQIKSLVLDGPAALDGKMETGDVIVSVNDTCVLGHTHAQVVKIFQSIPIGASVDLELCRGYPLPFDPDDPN

[21] = molecular target: GST-TIP1 PDZ domain 1 (Table 9 insert) (Homo sapiens (Human)) (UniProt O14907); assay: G' assay; also: key of the grades not given here
GST-TIP1 PDZ domain 1 (Table 9 insert) (Homo sapiens (Human)), sequence (O14907 14-116): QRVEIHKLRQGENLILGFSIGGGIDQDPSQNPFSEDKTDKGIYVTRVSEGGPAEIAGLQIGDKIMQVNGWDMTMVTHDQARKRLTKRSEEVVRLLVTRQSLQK

[22] = molecular target: GST-p55T PDZ domain 1 (Homo sapiens (Human)) (UniProt Q9NZW5); assay: G' assay; also: key of the grades not given here
[23] = molecular target: T2, GST-KIAA0300 PDZ domain 2 (UniProt O15018); assay: G' assay; also: key of the grades not given here
T2 sequence (looked up): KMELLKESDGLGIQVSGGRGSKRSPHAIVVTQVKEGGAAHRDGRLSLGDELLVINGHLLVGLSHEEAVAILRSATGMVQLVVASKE

[24] = molecular target: GST-DLG-1 PDZ domains 1 to 3 (Example 6) (Homo sapiens) (UniProt Q12959); assay: G assay competition vs 10 uM biotin-CD95 20-mer; competitor 50 uM
[25] = molecular target: GST-DLG-1 PDZ domains 1 to 3 (Example 6) (Homo sapiens) (UniProt Q12959); assay: G assay competition vs 20 uM biotin-CD46 20-mer; competitor 50 uM
[26] = molecular target: GST-DLG-1 PDZ domains 1 to 3 (Example 6) (Homo sapiens) (UniProt Q12959); assay: G assay competition vs 10 uM biotin-KV1.3 20-mer; competitor 50 uM
[27] = molecular target: GST-DLG-1 PDZ domains 1 to 3 (Example 6) (Homo sapiens) (UniProt Q12959); assay: G assay competition vs 20 uM biotin-CLASP-2 20-mer; competitor 50 uM

Substance AdenoE4 typ9 (peptide) has a Classification [1] of 1 A450 class.
Substance CD46 8-mer (peptide) has a % binding of labelled 20-mer [2] of 68%, a % binding of labelled 20-mer [3] of 90% and a % binding of labelled 20-mer [4] of 63%. It also gave a % binding of labelled 20-mer [5] of 90%.
Work on CLASP-2 3-mer (peptide) yielded a % binding of labelled 20-mer [6] of 51%, a % binding of labelled 20-mer [7] of 55% and a % binding of labelled 20-mer [8] of 72%. For the same substance, the % binding of labelled 20-mer [9] was 75%, the % binding of labelled 20-mer [10] was 46% and the % binding of labelled 20-mer [11] was 55%. For the same substance, the % binding of labelled 20-mer [12] was 81%, the % binding of labelled 20-mer [13] was 45% and the % binding of labelled 20-mer [14] was 59%. For the same substance, the % binding of labelled 20-mer [15] was 50%, the % binding of labelled 20-mer [16] was 61% and the % binding of labelled 20-mer [17] was 82%. It also gave a % binding of labelled 20-mer [18] of 59% and a % binding of labelled 20-mer [19] of 63%.
“CSPG4 (chondroitin sulfae proteoglycan 4, melanoma-associated) (peptide)” showed a Classification [1] of 2 A450 class.
HPV E6 #18 (peptide) was tested, and the Classification [20] was 5 A450 class and the Classification [21] was 4 A450 class.
In the case of MINT-1 (peptide), the Classification [1] is reported as 4 A450 class.
With MINT-2 (peptide) the Classification [1] was 3 A450 class and the Classification [22] was 1 A450 class.
Substance ephrin B2 (peptide) has a Classification [1] of 2 A450 class.
presenilin-1 (peptide) was tested, and the Classification [22] was 1 A450 class.
presenilin-2 (peptide) gave a Classification [1] of 1 A450 class and a Classification [23] of 1 A450 class.
“unlabeled 8 amino acid peptide corresponding to the C-terminus of CD95” showed a % binding of labelled 20-mer [24] of 70%, a % binding of labelled 20-mer [25] of 110% and a % binding of labelled 20-mer [26] of 84%. It also gave a % binding of labelled 20-mer [27] of 73%.
